According to patent publication US12116387B2, “Antimicrobial peptides” (priority 2021, dated 2024):

Assays:
[1] = system: different human and murine cell lines; experiment: Hemolysis and cytotoxicity, text summary over the cell lines of Table 2; assay type: cell-based; conditions: range over cell lines
[2] = system: human red blood cells (hRBCs); experiment: Cytotoxicity / hemolysis against human red blood cells; assay type: cell-based; conditions: hRBCs
[3] = system: human embryonic kidney (HEK293) cells; experiment: Cytotoxicity against HEK293 cells; assay type: cell-based; conditions: HEK293
From the text: The FLPII motif was chosen for the permutations to preserve the natural antimicrobial activity of mast-L and also conserve the hydrophobic content inserted in the N-terminal extremity for the initial design of mast-MO. Next, we assessed the antimicrobial (FIG. 10) and cytotoxic activities of the mast-MO analog library against HEK293 cells (FIG. 6C). These specific cell line was chosen as it derives from human embryonic kidney cells and potential antimicrobial (i.e., AMPs, antibiotics) toxicity affects the kidneys, which are responsible for clearing such molecules (34). Also measured was whether the peptides aggregated at the highest concentration tested (128 μmoL^−1) (Table 7) since the motif inserted is composed of residues with aliphatic or aromatic side chain groups that may be prone to aggregation when in proximity within the primary peptide sequence, thus altering biological activity. Minor changes to the first five residues inserted in the mast-MO primary sequence led to a pronounced decrease in cytotoxic activity (2.5 to 5-fold) compared to mast-MO (FIG. 6C).

[4] = system: leukocytes; experiment: Leukocyte migration to the peritoneal cavity of mice infected with E. coli ATCC8739; assay type: in vivo, C57BL/6 mice; conditions: mast-MO 10 mg Kg^−1, mast-L 5 mg Kg^−1
Description: To test whether the FLPII motif within the mast-MO sequence led to increased immunomodulatory and chemotactic properties with respect to mast-L, ELISA experiments were performed using the peritoneal fluid collected from mice (FIG. 5a). C57BL/6 mice were infected with both Gram-negative and Gram-positive pathogens and administered either mast-L or mast-MO intraperitoneally. For mice infected with E. coli ATCC8739, we monitored the peritoneal cavity to detect and quantify the release and presence of several immune mediators (FIG. 4E). […] This effect was similar to the positive control group of mice treated with […] (TGA) (FIG. 4B). […] We monitored, via ELISAs, the cytokine profiles present within the peritoneal cavity of mice infected with E. coli ATCC8739 and S. aureus ATCC29213 (FIGS. 4E and FIG. 4F, respectively) and treated with a single dose of peptide. […]
Isolation of leukocytes from the peritoneal cavity of mice. Leukocyte migration into the peritoneal cavity of uninfected C57BL/6 mice treated with 10 mg Kg^−1 of peptides was evaluated to assess the chemotactic activity of the peptides, as previously described (11). […] Leukocyte counts present in the in peritoneal cavity of mice infected with E. coli ATCC 8739 were quantified. […] The results are expressed as the number of cells per cavity (48).

[5] = system: murine fibroblasts (L929); experiment: Cytotoxicity against L929 fibroblasts (MTT); assay type: cell-based; conditions: L929
Description: Mammalian cells toxicity assays. L929 mice fibroblasts (Rio de Janeiro Cell Bank) and SPCs were seeded in 96-well microtiter plates in a concentration of 1.0×10^5 cells per well, in DMEM medium, supplemented with different concentrations of tested peptides (1-600 μM). After 48 h incubation, a thiazolyl blue tetrazolium bromide (MTT) protocol was performed. Briefly, 60% of the medium was removed, and 10 μL of MTT (5 mg mL^−1) (Sigma, USA) solution was added to each well and the plate was incubated for 4 h, in 5% CO2, at 37° C. The blue formazan product generated was dissolved by the addition of 100 μL of 100% DMSO (Mallinckrodt, Germany) per well. Plates were then gently swirled for 5 min, at room temperature, to dissolve the precipitate. The absorbance was monitored at 575 nm using a microplate spectrophotometer (Bio-Tek, USA). Cytotoxicity was determined as a percentage of the maximum value after subtracting the background. The results were expressed as the percentage of each sample compared to the negative control (PBS buffer, pH 7.4) and cell culture was incubated in a lysis buffer (10 mM Tris, pH 7.4, 1 mM ethylenediamine tetraacetic acid (EDTA), and 0.1% Triton X-100).

[6] = system: S. aureus ATCC29213; experiment: Systemic sepsis infection mouse model, S. aureus ATCC29213; assay type: in vivo; conditions: 5 mg Kg^−1 i.p.
Description: (§1) FIG. 5A-5I pertains to a study of the anti-infective activity of mast-MO against Gram-negative and Gram-positive pathogens in a lethal sepsis infection model. In FIG. 5A mice were infected with bacteria, treated with each peptide or antibiotic and monitored for 8 days. Survival and cell counts after 24 h, respectively, are shown for E. coli ATCC8739 (2×10^4 CFU/mL inoculum) FIG. 5B and FIG. 5C, S. aureus ATCC29213 (2×10^9 CFU/mL inoculum) FIG. 5D and FIG. 5E, E. coli 1812446 (KPC-positive) (2×10^4 CFU inoculum) FIG. 5F and FIG. 5G, and S. aureus (MRSA) ATCC33591 (2×10^9 CFU inoculum) FIG. 5H and FIG. 5I. Mice were treated intraperitoneally (i.p.) with 1, 5 and 10 mg Kg^−1 of mast-L, mast-MO or 10 mg Kg^−1 of the antibiotics gentamicin and imipenem. PBS was used as a control for the untreated group of mice. Treatments were administered 3 h post-infection. Data are expressed as the mean±standard deviation. Statistical analysis was performed using Bonferroni test. […], **p<0.01, ***p<0.001 compared to the untreated control.
(§2) Systemic bacterial infection mouse model. […] Animals were humanely killed 24 h after bacterial administration.

[7] = system: S. aureus MRSA ATCC33591; experiment: Systemic sepsis infection mouse model, MRSA; assay type: in vivo; conditions: 5 mg Kg^−1 i.p.
Description: as §1, §2

For NLKALAALAKKIL [Mast-L], which “Concentration hemolytic and toxic towards human and murine cell lines” value [1] is on record?
The value was 7 to 50 µmol⁻¹.

And the “Cytotoxic activity, Peptide Concentration” value (“Cytotoxic activity” below) [2]?
The value was 7 µmol/L.

What about the “Cytotoxic activity” value [3] of the same sequence?
Its value is 50 µmol/L.

What about the “Leukocyte recruitment over the time period tested, in words” value [4] of the same sequence?
The value was “did not significantly induce leukocyte recruitment”.

What about the “Cytotoxic activity” value [5] of the same sequence?
The value was 10 µmol/L.

And the Survival [6]?
Its Survival is 80%.

What about the Survival [7] of the same sequence?
Its Survival is 60%.
